Test results from paper PMC3174691 (Journal of molecular biology, 2008).

Target: T1, E. coli RecB (E. coli, UniProt P08394 1-1180)
T1 sequence (looked up): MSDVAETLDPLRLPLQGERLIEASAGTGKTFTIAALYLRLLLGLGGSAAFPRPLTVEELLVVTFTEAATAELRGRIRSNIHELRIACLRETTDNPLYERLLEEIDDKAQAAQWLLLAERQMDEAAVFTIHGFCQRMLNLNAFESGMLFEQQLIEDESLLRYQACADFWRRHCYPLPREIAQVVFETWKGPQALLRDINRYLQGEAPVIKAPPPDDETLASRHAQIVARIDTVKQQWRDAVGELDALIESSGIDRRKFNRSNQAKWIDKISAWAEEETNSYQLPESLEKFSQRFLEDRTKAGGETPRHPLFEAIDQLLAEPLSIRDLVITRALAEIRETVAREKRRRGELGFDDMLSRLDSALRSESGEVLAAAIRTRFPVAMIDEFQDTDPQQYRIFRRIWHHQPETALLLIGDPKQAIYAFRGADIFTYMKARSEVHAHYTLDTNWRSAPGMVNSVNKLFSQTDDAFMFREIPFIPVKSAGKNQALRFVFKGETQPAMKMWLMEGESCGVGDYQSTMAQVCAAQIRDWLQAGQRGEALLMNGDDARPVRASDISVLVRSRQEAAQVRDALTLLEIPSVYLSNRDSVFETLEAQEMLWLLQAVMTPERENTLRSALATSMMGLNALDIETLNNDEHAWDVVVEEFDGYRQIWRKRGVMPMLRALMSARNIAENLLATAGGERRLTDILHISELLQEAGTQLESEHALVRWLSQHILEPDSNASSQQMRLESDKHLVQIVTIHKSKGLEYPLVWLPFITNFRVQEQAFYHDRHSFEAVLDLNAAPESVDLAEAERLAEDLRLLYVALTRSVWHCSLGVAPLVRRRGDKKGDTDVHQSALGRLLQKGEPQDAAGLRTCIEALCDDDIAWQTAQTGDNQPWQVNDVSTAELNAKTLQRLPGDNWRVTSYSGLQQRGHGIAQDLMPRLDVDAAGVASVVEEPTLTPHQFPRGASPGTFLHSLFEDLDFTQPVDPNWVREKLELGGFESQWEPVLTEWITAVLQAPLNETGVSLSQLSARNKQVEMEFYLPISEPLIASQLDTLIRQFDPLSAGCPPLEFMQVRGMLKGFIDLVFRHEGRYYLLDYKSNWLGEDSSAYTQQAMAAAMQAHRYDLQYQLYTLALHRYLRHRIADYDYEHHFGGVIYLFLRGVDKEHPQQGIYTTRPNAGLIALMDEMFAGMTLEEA
Assay: reconstitution of the complex by mixing

B1: E. coli RecC (natural protein, UniProt P07648 1-1122, looked up)
chain: MLRVYHSNRLDVLEALMEFIVERERLDDPFEPEMILVQSTGMAQWLQMTLSQKFGIAANIDFPLPASFIWDMFVRVLPEIPKESAFNKQSMSWKLMTLLPQLLEREDFTLLRHYLTDDSDKRKLFQLSSKAADLFDQYLVYRPDWLAQWETGHLVEGLGEAQAWQAPLWKALVEYTHQLGQPRWHRANLYQRFIETLESATTCPPGLPSRVFICGISALPPVYLQALQALGKHIEIHLLFTNPCRYYWGDIKDPAYLAKLLTRQRRHSFEDRELPLFRDSENAGQLFNSDGEQDVGNPLLASWGKLGRDYIYLLSDLESSQELDAFVDVTPDNLLHNIQSDILELENRAVAGVNIEEFSRSDNKRPLDPLDSSITFHVCHSPQREVEVLHDRLLAMLEEDPTLTPRDIIVMVADIDSYSPFIQAVFGSAPADRYLPYAISDRRARQSHPVLEAFISLLSLPDSRFVSEDVLALLDVPVLAARFDITEEGLRYLRQWVNESGIRWGIDDDNVRELELPATGQHTWRFGLTRMLLGYAMESAQGEWQSVLPYDESSGLIAELVGHLASLLMQLNIWRRGLAQERPLEEWLPVCRDMLNAFFLPDAETEAAMTLIEQQWQAIIAEGLGAQYGDAVPLSLLRDELAQRLDQERISQRFLAGPVNICTLMPMRSIPFKVVCLLGMNDGVYPRQLAPLGFDLMSQKPKRGDRSRRDDDRYLFLEALISAQQKLYISYIGRSIQDNSERFPSVLVQELIDYIGQSHYLPGDEALNCDESEARVKAHLTCLHTRMPFDPQNYQPGERQSYAREWLPAASQAGKAHSEFVQPLPFTLPETVPLETLQRFWAHPVRAFFQMRLQVNFRTEDSEIPDTEPFILEGLSRYQINQQLLNALVEQDDAERLFRRFRAAGDLPYGAFGEIFWETQCQEMQQLADRVIACRQPGQSMEIDLACNGVQITGWLPQVQPDGLLRWRPSLLSVAQGMQLWLEHLVYCASGGNGESRLFLRKDGEWRFPPLAAEQALHYLSQLIEGYREGMSAPLLVLPESGGAWLKTCYDAQNDAMLDDDSTLQKARTKFLQAYEGNMMVRGEGDDIWYQRLWRQLTPETMEAIVEQSQRFLLPLFRFNQS
binding result: binds
